Assay results: the supplement of paper PMC3353916
± gives the standard deviation of the averaged measurements.

System: Sindbis virus TE/5'2J-GFP
Assay: percent infected (GFP+ in RFP+ ISG-expressing cells); higher = more infection (less antiviral activity)
Procedure: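 Confirmatory testing of 87 ISGs. Triplicate wells of BHK/HA-Zeo (control) or BHK/NZAP-Zeo (ZAP) cells were transduced with lentiviruses co-expressing a human ISG plus TagRFP, then infected 48 h later with SINV TE/5'2J-GFP (moi 5). The % GFP+ cells among RFP+ cells was measured by flow cytometry at 8 h post infection. Fluc lentivirus served as control. Three independent experiments.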

[1] = experiment: confirmatory screen 1, BHK/HA-Zeo (control)
[2] = experiment: confirmatory screen 1, BHK/NZAP-Zeo (ZAP)
[3] = experiment: confirmatory screen 2, BHK/HA-Zeo (control)
[4] = experiment: confirmatory screen 2, BHK/NZAP-Zeo (ZAP)
[5] = experiment: confirmatory screen 3, BHK/HA-Zeo (control)
[6] = experiment: confirmatory screen 3, BHK/NZAP-Zeo (ZAP)
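Also: Interferon-defective BHK-21 derivatives, ZAP line overexpressing the rat ZAP N-terminal zinc finger domain fused to Zeocin resistance, GFP scored within live singlet TagRFP+ cells.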

Row | Sequence | percent infected [1] [%] | percent infected [2] [%] | percent infected [3] [%] | percent infected [4] [%] | percent infected [5] [%] | percent infected [6] [%]
1 | MRRLWGAARKPSGAGWEKEWAEAPQEAPGAWSGRLGPGRSGRKGRAVPGWASWPAHLALAARPARHLGGAGQGPRPLHSGTAPFHSRASGERQRRLEPQLQHESRCRSSTPADAWRAEAALPVRAMGAPWGSPTAAAGGRRGWRRGRGLPWTVCVLAAAGLTCTALITYACWGQLPPLPWASPTPSRPVGVLLWWEPFGGRDSAPRPPPDCRLRFNISGCRLLTDRASYGEAQAVLFHHRDLVKGPPDWPPPWGIQAHTAEEVDLRVLDYEEAAAAAEALATSSPRPPGQRWVWMNFESPSHSPGLRSLASNLFNWTLSYRADSDVFVPYGYLYPRSHPGDPPSGLAPPLSRKQGLVAWVVSHWDERQARVRYYHQLSQHVTVDVFGRGGPGQPVPEIGLLHTVARYKFYLAFENSQHLDYITEKLWRNALLAGAVPVVLGPDRANYERFVPRGAFIHVDDFPSASSLASYLLFLDRNPAVYRRYFHWRRSYAVHITSFWDEPWCRVCQAVQRAGDRPKSIRNLASWFER [FUT4] | 94.45 ± 0.48 | 62.4 ± 5.3 | 92 ± 1.1 | 94.23 ± 0.27 | 89 ± 2.8 | 92.68 ± 0.55
2 | MRSARSTALNRGEQRAVRYYSHMKLNMAEEEDYMSDSFINVQEDIRPGLPMLRQIREARRKEEKQQEANLKNRQKSLKEEEQERRDIGLKNALGCENKGFALLQKMGYKSGQALGKSGGGIVEPIPLNIKTGKSGIGHEASLKRKAEEKLESYRKKIHMKNQAEEKAAEQFRMRLKNKQDEMKLEGDLRRSQRACQQLDVQKNIQVPREAWYWLRLEEETEEDEEEKEQDEDEYKSEDLSVLEKLQILTSYLREEHLYCIWCGTAYEDKEDLSSNCPGPTSADHD [CCDC75] | 93.8 ± 1.8 | 56.8 ± 4.7 | 96.02 ± 0.47 | 95.39 ± 0.41 | 94.54 ± 0.85 | 92.82 ± 0.32
3 | MRSRLLLSVAHLPTIRETTEEMLLGGPGQEPPPSPSLDDYVRSISRLAQPTSVLDKATAQGQPRPPHRPAQACRKGRPAVSLRDITARFSGQQPTLPMADTVDPLDWLFGESQEKQPSQRDLPRRTGPSAGLWGPHRQMDSSKPMGAPRGRLCEARMPGHSLARPPQDGQQSSDLRSWTFGQSAQAMASRHRPRPSSVLRTLYSHLPVIHEL [C10orf10] | 94.8 ± 1.7 | 63.9 ± 6.1 | 95.247 ± 0.086 | 94.42 ± 0.28 | 94.16 ± 0.87 | 92.8 ± 0.27
4 | MRTSYLLLFTLCLLLSEMASGGNFLTGLGHRSDHYNCVSSGGQCLYSACPIFTKIQGTCYRGKAKCCK [DEFB1] | 97.13 ± 0.85 | 84.4 ± 1.1 | 95.11 ± 0.27 | 92.98 ± 0.91 | 91.66 ± 0.67 | 92.239 ± 0.055
5 | MSEIRKDTLKAILLELECHFTWNLLKEDIDLFEVEDTIGQQLEFLTTKSRLALYNLLAYVKHLKGQNKDALECLEQAEEIIQQEHSDKEEVRSLVTWGNYAWVYYHMDQLEEAQKYTGKIGNVCKKLSSPSNYKLECPETDCEKGWALLKFGGKYYQKAKAAFEKALEVEPDNPEFNIGYAITVYRLDDSDREGSVKSFSLGPLRKAVTLNPDNSYIKVFLALKLQDVHAEAEGEKYIEEILDQISSQPYVLRYAAKFYRRKNSWNKALELLKKALEVTPTSSFLHHQMGLCYRAQMIQIKKATHNRPKGKDKLKVDELISSAIFHFKAAMERDSMFAFAYTDLANMYAEGGQYSNAEDIFRKALRLENITDDHKHQIHYHYGRFQEFHRKSENTAIHHYLEALKVKDRSPLRTKLTSALKKLSTKRLCHNALDVQSLSALGFVYKLEGEKRQAAEYYEKAQKIDPENAEFLTALCELRLSI [IFIT5] | 81.6 ± 2.9 | 50.4 ± 1.2 | 95.17 ± 0.24 | 95.34 ± 0.45 | 88.13 ± 0.37 | 90.56 ± 0.79
6 | MSIMDHSPTTGVVTVIVILIAIAALGALILGCWCYLRLQRISQSEDEESIVGDGETKEPFLLVQYSAKGPCVERKAKLMTPNGPEVHG [SNN] | 95.8 ± 1.9 | 86.47 ± 0.82 | 96.15 ± 0.19 | 95.59 ± 0.2 | 93.27 ± 0.64 | 92.87 ± 0.32
7 | MSLRGSLSRLLQTRVHSILKKSVHSVAVIGAPFSQGQKRKGVEHGPAAIREAGLMKRLSSLGCHLKDFGDLSFTPVPKDDLYNNLIVNPRSVGLANQELAEVVSRAVSDGYSCVTLGGDHSLAIGTISGHARHCPDLCVVWVDAHADINTPLTTSSGNLHGQPVSFLLRELQDKVPQLPGFSWIKPCISSASIVYIGLRDVDPPEHFILKNYDIQYFSMRDIDRLGIQKVMERTFDLLIGKRQRPIHLSFDIDAFDPTLAPATGTPVVGGLTYREGMYIAEEIHNTGLLSALDLVEVNPQLATSEEEAKTTANLAVDVIASSFGQTREGGHIVYDQLPTPSSPDESENQARVRI [ARG2] | 93.279 ± 0.073 | 64 ± 4.9 | 95.82 ± 0.36 | 95.52 ± 0.29 | 92.68 ± 0.49 | 93.532 ± 0.087
8 | MSNGYSTDENFRYLISCFRARVKMYIQVEPVLDYLTFLPAEVKEQIQRTVATSGNMQAVELLLSTLEKGVWHLGWTREFVEALRRTGSPLAARYMNPELTDLPSPSFENAHDEYLQLLNLLQPTLVDKLLVRDVLDKCMEEELLTIEDRNRIAAAENNGNESGVRELLKRIVQKENWFSAFLNVLRQTGNNELVQELTGSDCSESNAEIENLSQVDGPQVEEQLLSTTVQPNLEKEVWGMENNSSESSFADSSVVSESDTSLAEGSVSCLDESLGHNSNMGSDSGTMGSDSDEENVAARASPEPELQLRPYQMEVAQPALEGKNIIICLPTGSGKTRVAVYIAKDHLDKKKKASEPGKVIVLVNKVLLVEQLFRKEFQPFLKKWYRVIGLSGDTQLKISFPEVVKSCDIIISTAQILENSLLNLENGEDAGVQLSDFSLIIIDECHHTNKEAVYNNIMRHYLMQKLKNNRLKKENKPVIPLPQILGLTASPGVGGATKQAKAEEHILKLCANLDAFTIKTVKENLDQLKNQIQEPCKKFAIADATREDPFKEKLLEIMTRIQTYCQMSPMSDFGTQPYEQWAIQMEKKAAKEGNRKERVCAEHLRKYNEALQINDTIRMIDAYTHLETFYNEEKDKKFAVIEDDSDEGGDDEYCDGDEDEDDLKKPLKLDETDRFLMTLFFENNKMLKRLAENPEYENEKLTKLRNTIMEQYTRTEESARGIIFTKTRQSAYALSQWITENEKFAEVGVKAHHLIGAGHSSEFKPMTQNEQKEVISKFRTGKINLLIATTVAEEGLDIKECNIVIRYGLVTNEIAMVQARGRARADESTYVLVAHSGSGVIEHETVNDFREKMMYKAIHCVQNMKPEEYAHKILELQMQSIMEKKMKTKRNIAKHYKNNPSLITFLCKNCSVLACSGEDIHVIEKMHHVNMTPEFKELYIVRENKALQKKCADYQINGEIICKCGQAWGTMMVHKGLDLPCLKIRNFVVVFKNNSTKKQYKKWVELPITFPNLDYSECCLFSDED [IFIH1] | 70.9 ± 2.3 | 14.9 ± 0.81 | 95.18 ± 0.27 | 92.703 ± 0.051 | 85 ± 1.1 | 81 ± 2.6
9 | MSSAIERKSLDPSEEPVDEVLQIPPSLLTCGGCQQNIGDRYFLKAIDQYWHEDCLSCDLCGCRLGEVGRRLYYKLGRKLCRRDYLRLFGQDGLCASCDKRIRAYEMTMRVKDKVYHLECFKCAACQKHFCVGDRYLLINSDIVCEQDIYEWTKINGMI [LMO2] | 95.7 ± 1.2 | 86.1 ± 1.6 | 95.94 ± 0.44 | 94.18 ± 0.17 | 92.69 ± 0.33 | 92.61 ± 0.82
10 | MSSENCFVAENSSLHPESGQENDATSPHFSTRHEGSFQVPVLCAVMNVVFITILIIALIALSVGQYNCPGQYTFSMPSDSHVSSCSEDWVGYQRKCYFISTVKRSWTSAQNACSEHGATLAVIDSEKDMNFLKRYAGREEHWVGLKKEPGHPWKWSNGKEFNNWFNVTGSDKCVFLKNTEVSSMECEKNLYWICNKPYK [CD69] | 95.94 ± 0.47 | 68.2 ± 4.8 | 94.01 ± 0.54 | 94.27 ± 0.39 | 91.7 ± 1.1 | 93.02 ± 0.27
11 | MSSILPFTPPIVKRLLGWKKGEQNGQEEKWCEKAVKSLVKKLKKTGQLDELEKAITTQNVNTKCITIPRSLDGRLQVSHRKGLPHVIYCRLWRWPDLHSHHELRAMELCEFAFNMKKDEVCVNPYHYQRVETPVLPPVLVPRHTEIPAEFPPLDDYSHSIPENTNFPAGIEPQSNIPETPPPGYLSEDGETSDHQMNHSMDAGSPNLSPNPMSPAHNNLDLQPVTYCEPAFWCSISYYELNQRVGETFHASQPSMTVDGFTDPSNSERFCLGLLSNVNRNAAVELTRRHIGRGVRLYYIGGEVFAECLSDSAIFVQSPNCNQRYGWHPATVCKIPPGCNLKIFNNQEFAALLAQSVNQGFEAVYQLTRMCTIRMSFVKGWGAEYRRQTVTSTPCWIELHLNGPLQWLDKVLTQMGSPSIRCSSVS [SMAD3] | 77.4 ± 2.3 | 40.7 ± 1.2 | 93.92 ± 0.8 | 94.56 ± 0.45 | 80.2 ± 1.3 | 88.2 ± 1.7
12 | MSSWSRQRPKSPGGIQPHVSRTLFLLLLLAASAWGVTLSPKDCQVFRSDHGSSISCQPPAEIPGYLPADTVHLAVEFFNLTHLPANLLQGASKLQELHLSSNGLESLSPEFLRPVPQLRVLDLTRNALTGLPPGLFQASATLDTLVLKENQLEVLEVSWLHGLKALGHLDLSGNRLRKLPPGLLANFTLLRTLDLGENQLETLPPDLLRGPLQLERLHLEGNKLQVLGKDLLLPQPDLRYLFLNGNKLARVAAGAFQGLRQLDMLDLSNNSLASVPEGLWASLGQPNWDMRDGFDISGNPWICDQNLSDLYRWLQAQKDKMFSQNDTRCAGPEAVKGQTLLAVAKSQ [LRG1] | 95.1 ± 1 | 68.2 ± 4.8 | 95.09 ± 0.35 | 94.92 ± 0.53 | 93.09 ± 0.65 | 94.47 ± 0.18
13 | MTLNNVTMRQGTVGMQPQQQRWSIPADGRHLMVQKEPHQYSHRNRHSATPEDHCRRSWSSDSTDSVISSESGNTYYRVVLIGEQGVGKSTLANIFAGVHDSMDSDCEVLGEDTYERTLMVDGESATIILLDMWENKGENEWLHDHCMQVGDAYLIVYSITDRASFEKASELRIQLRRARQTEDIPIILVGNKSDLVRCREVSVSEGRACAVVFDCKFIETSAAVQHNVKELFEGIVRQVRLRRDSKEKNERRLAYQKRKESMPRKARRFWGKIVAKNNKNMAFKLKSKSCHDLSVL [GEM] | 91.5 ± 3.5 | 65 ± 4 | 94.19 ± 0.65 | 94.64 ± 0.36 | 94.39 ± 0.59 | 93.55 ± 0.12
14 | MTLRCLEPSGNGGEGTRSQWGTAGSAEEPSPQAARLAKALRELGQTGWYWGSMTVNEAKEKLKEAPEGTFLIRDSSHSDYLLTISVKTSAGPTNLRIEYQDGKFRLDSIICVKSKLKQFDSVVHLIDYYVQMCKDKRTGPEAPRNGTVHLYLTKPLYTSAPSLQHLCRLTINKCTGAIWGLPLPTRLKDYLEEYKFQV [SOCS2] | 95.84 ± 0.81 | 76.8 ± 4.2 | 95.47 ± 0.42 | 94.44 ± 0.35 | 92.29 ± 0.39 | 92.23 ± 0.73
